Measured values taken from paper PMC4077652, “An Unstable Th Epitope of P. falciparum Fosters Central Memory T Cells and Anti-CS Antibody Responses” (PLoS ONE, 2014).
Where no end group is shown, it is not given here.

B1: biotin-labeled QNT-5 332-345 peptide (peptide)
peptide: QNSLSTEWSPCSVT
modifications: not fully specified (N-terminus)
B2: biotin-labeled QNT-Y peptide (QNT-5 analogue L335Y) (peptide)
peptide: QNSYSTEWSPCSVT
modifications: not fully specified (N-terminus)

What was measured:
[1] = biological target: soluble recombinant HLA-DR4 (HLA-DRβ1*04:01) (human); assay: ELISA
[2] = biological target: soluble recombinant HLA-DR4 (HLA-DRβ1*04:01) (human); assay: dissociation kinetics (LB3.1 capture, europium-streptavidin time-resolved fluorescence)
[3] = biological target: soluble recombinant HLA-DR4 (HLA-DRβ1*04:01) (human); assay: ELISA; apparent Kd; direct binding of biotin-labeled peptide to DR4 as in the DR-ELISA (72 h), binding reactions set up with 1 µM HLA-DM

Row | Binder | Kd [1] [nM] | half-life [2] [days] | half-life with HLA-DM [2] [min] | Kd [3] [nM]
1 | B1 | 504 | 0.212 | 105 | 714
2 | B2 | 25.5 | 5.77 | 2590 | 35.7
